{"source": "patent US6949244", "key": {"[1]": {"target": "murine monoclonal anti-HMFG antibody MC-10 (BrE-1)", "assay": "RIA: plate coated with 100 ng 11D10, 125I-BrE-1 bound"}, "[2]": {"target": "BrE-3", "assay": "RIA: plate coated with 100 ng 11D10, 125I-BrE-3 bound"}, "[3]": {"target": "murine monoclonal anti-HMFG antibody MC-10 (BrE-1)", "assay": "RIA: plate coated with 300 ng 11D10, 125I-BrE-1 bound"}, "[4]": {"target": "BrE-3", "assay": "RIA: plate coated with 300 ng 11D10, 125I-BrE-3 bound"}, "[5]": {"target": "murine monoclonal anti-HMFG antibody MC-10 (BrE-1)", "assay": "RIA: plate coated with 1000 ng 11D10, 125I-BrE-1 bound"}, "[6]": {"target": "BrE-3", "assay": "RIA: plate coated with 1000 ng 11D10, 125I-BrE-3 bound"}, "[7]": {"target": "murine monoclonal anti-HMFG antibody MC-10 (BrE-1)", "assay": "RIA: 125I-11D10 bound to BrE-1 coated plate, no inhibitor"}, "[8]": {"target": "murine monoclonal anti-HMFG antibody MC-10 (BrE-1)", "assay": "competition RIA: 125I-11D10 on BrE-1 coated plate, 0.250 µg unlabeled 11D10"}, "[9]": {"target": "murine monoclonal anti-HMFG antibody MC-10 (BrE-1)", "assay": "competition RIA: 250 ng 11D10 mixed with labeled BrE-1, binding to MCF-7 / SKBR3 cell monolayers"}}}
{"substance": "monoclonal anti-idiotype antibody 11D10", "values": [{"measurement": "cpm", "setting": "[1]", "result": 6150, "unit": "cpm"}, {"measurement": "cpm", "setting": "[2]", "result": 263, "unit": "cpm"}, {"measurement": "cpm", "setting": "[3]", "result": 16700, "unit": "cpm"}, {"measurement": "cpm", "setting": "[4]", "result": 260, "unit": "cpm"}, {"measurement": "cpm", "setting": "[5]", "result": 44200, "unit": "cpm"}, {"measurement": "cpm", "setting": "[6]", "result": 374, "unit": "cpm"}, {"measurement": "cpm Bound", "setting": "[7]", "result": 37100, "unit": "cpm"}, {"measurement": "% inhibition", "setting": "[8]", "result": 95, "unit": "%"}, {"measurement": "cpm Bound", "setting": "[8]", "result": 1850, "unit": "cpm"}, {"measurement": "% inhibition", "setting": "[9]", "result": "> 90", "unit": "%"}]}
